Experiment [1] concerns the target T1, soluble CD73 dimer (human, UniProt P21589 27-549, limits assumed).
T1 construct: CD73 in the flow (SPR) or in solution (BLI binning); also called soluble human CD73
T1 sequence: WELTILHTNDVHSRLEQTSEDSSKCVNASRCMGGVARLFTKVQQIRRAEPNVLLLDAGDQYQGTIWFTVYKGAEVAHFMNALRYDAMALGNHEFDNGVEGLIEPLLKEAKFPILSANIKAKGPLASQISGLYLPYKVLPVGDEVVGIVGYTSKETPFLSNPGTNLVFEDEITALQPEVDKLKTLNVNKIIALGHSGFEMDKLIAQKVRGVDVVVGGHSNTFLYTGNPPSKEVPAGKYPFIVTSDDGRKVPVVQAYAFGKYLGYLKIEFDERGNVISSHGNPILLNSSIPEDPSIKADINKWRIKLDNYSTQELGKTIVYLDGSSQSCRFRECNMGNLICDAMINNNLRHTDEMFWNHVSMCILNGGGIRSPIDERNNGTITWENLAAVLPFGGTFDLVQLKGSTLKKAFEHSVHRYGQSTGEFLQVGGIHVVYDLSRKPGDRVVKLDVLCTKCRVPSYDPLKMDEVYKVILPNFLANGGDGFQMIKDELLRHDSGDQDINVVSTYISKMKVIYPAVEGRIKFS
Description: SPR, antibody captured on Protein A chip, CD73 in flow; biphasic fit, component of abundance 57%.

The target in experiment [2] is T1, soluble CD73 dimer. Description: SPR, antibody captured on Protein A chip, CD73 in flow; biphasic fit, component of abundance 43%. (In general: SPR reads the build-up and loss of mass on a sensor chip optically.)
Experiment [3] has as its target T1, soluble CD73 dimer. Description: SPR, antibody captured on chip, CD73 in flow; biphasic fit, share after 300 s binding phase of the component with ka 1.58E+05 1/Ms.
In experiment [4] the target is T2, human CD73 on COR-L23 lung carcinoma cells (human) (UniProt P21589).
T2 sequence: T1 sequence

For experiment [5], the target named is T1, soluble CD73 dimer. Description: SPR, antibody captured on Protein A chip, CD73 in flow; Langmuir 1:1 fit.
Experiment [6] has as its target T1, soluble CD73 dimer. Description: SPR, antibody captured on chip, CD73 in flow; biphasic fit, share after 300 s binding phase of the component with ka 8.50E+05 1/Ms.
For experiment [7], the target named is T2, human CD73 on COR-L23 lung carcinoma cells (human). In words: cell-based or functional assay.
For experiment [8], the target named is T1, soluble CD73 dimer. Description: SPR, antibody captured on Protein A chip, CD73 in flow; biphasic fit, component of abundance 91%.
Experiment [9] deals with T1, soluble CD73 dimer. Description: SPR, antibody captured on chip, CD73 in flow; biphasic fit, share by T0 intercept of the component with kd 1.28E-04 1/s.
Experiment [10] deals with T1, soluble CD73 dimer. Description: SPR dissociation kinetics.
The target of experiment [11] is T1, soluble CD73 dimer. In words: SPR, antibody captured on chip, CD73 in flow; biphasic fit, share by T0 intercept of the component with kd 4.06E-03 1/s.
The target in experiment [12] is T1, soluble CD73 dimer. Description: SPR, antibody captured on Protein A chip, CD73 in flow; Langmuir ka with major component kd.
Experiment [13] has as its target T1, soluble CD73 dimer. In words: SPR, antibody captured on Protein A chip, CD73 in flow; biphasic fit, component of abundance 9%.
For experiment [14], the target named is T1, soluble CD73 dimer. In words: SPR, antibody captured on Protein A chip, CD73 in flow; biphasic fit, component of abundance 35%.
The target of experiment [15] is T1, soluble CD73 dimer. Description: SPR, antibody captured on chip, CD73 in flow; biphasic fit, share after 300 s binding phase of the component with ka 1.38E+06 1/Ms.
The target of experiment [16] is T1, soluble CD73 dimer. In words: SPR, antibody captured on chip, CD73 in flow; biphasic fit, share by T0 intercept of the component with kd 2.70E-03 1/s.
The target of experiment [17] is T1, soluble CD73 dimer. Description: SPR, antibody captured on chip, CD73 in flow; biphasic fit, share after 300 s binding phase of the component with ka 2.81E+05 1/Ms.
For experiment [18], the target named is T1, soluble CD73 dimer. Description: SPR, antibody captured on Protein A chip, CD73 in flow; biphasic fit, component of abundance 65%.
Experiment [19] deals with T1, soluble CD73 dimer. In words: SPR, antibody captured on Protein A chip, CD73 in flow; biphasic fit, component of abundance 85%.
The target in experiment [20] is T1, soluble CD73 dimer. In words: SPR, antibody on the solid support, soluble CD73 dimer in solution.
The target of experiment [21] is T1, soluble CD73 dimer. In words: SPR, antibody captured on chip, CD73 in flow; biphasic fit, share by T0 intercept of the component with kd 2.70E-05 1/s.
Experiment [22] concerns the target T1, soluble CD73 dimer. Description: SPR; KD from Langmuir ka and kd of the principal dissociation component.
Experiment [23] deals with T1, soluble CD73 dimer. In words: SPR, antibody captured on Protein A chip, CD73 in flow; biphasic fit, component of abundance 15%.
The target of experiment [24] is T1, soluble CD73 dimer. In words: SPR, antibody captured on chip, CD73 in flow; biphasic fit, share after 300 s binding phase of the component with ka 1.16E+05 1/Ms.
Experiment [25] concerns the target T1, soluble CD73 dimer. In words: SPR, antibody captured on Protein A chip, CD73 in flow; biphasic fit, component of abundance 45%.
Experiment [26] deals with T1, soluble CD73 dimer. In words: SPR, antibody captured on chip, CD73 in flow; biphasic fit, share by T0 intercept of the component with kd 7.80E-05 1/s.
For experiment [27], the target named is T1, soluble CD73 dimer. Description: SPR, antibody captured on chip, CD73 in flow; biphasic fit, share after 300 s binding phase of the component with ka 1.19E+06 1/Ms.
Experiment [28] deals with T1, soluble CD73 dimer. Description: SPR, antibody captured on Protein A chip, CD73 in flow; biphasic fit, component of abundance 55%.
The target of experiment [29] is T1, soluble CD73 dimer. In words: SPR, antibody captured on chip, CD73 in flow; biphasic fit, share by T0 intercept of the component with kd 6.00E-03 1/s.

B1: E3.2/TB19 (bispecific antibody, part only; not given: E3.2 arm; constant regions, V domains shown, part only)
VH: QEQLQESGPGLVKPSETLSLTCTVSGGSIRNNYYNWIRQPAGKGLEWIGRIYISGTTNSNPSLKSRVTMSIDTSKNQFSLKLSSVTAADTAIYYCAREHYVSGTSLDNWGQGTLVTVSS
VL: EIVMTQSPTTLSLSPGERATLSCRASQSVNTNYFSWYQQKPGLTPRLLIYGTSTRATGIPARFSGSGSGTDFTLTISSLQPEDFGIYYCQQDYNLPYTFGQGTYLEIK
Turning to B1, the kon – broadly, the rate constant with which the complex forms – with soluble CD73 dimer [1] was 158000 M⁻¹ s⁻¹; with soluble CD73 dimer [2] it was 850000 M⁻¹ s⁻¹; with soluble CD73 dimer [5], 364000 M⁻¹ s⁻¹. Further, the values for the abundance of association component (biphasic fit) with soluble CD73 dimer [3] and in the experiment with soluble CD73 dimer [6] were 57% and 43%, respectively. For the same molecule, in experiment [4], the % inhibition of CD73 activity at 1 µg/ml antibody (COR-L23 cells, 4 h, LC/MS); cell E3.2 x TB19 is 95%. The koff (in general, the rate constant with which the complex falls apart) in the experiment with soluble CD73 dimer [5] was found to be 0.000164 s⁻¹; in the experiment with soluble CD73 dimer [8], 0.000128 s⁻¹; in the experiment with soluble CD73 dimer [13] it was 0.00406 s⁻¹. For the same molecule, the EC50 (nM) of inhibition of CD73 activity (adenosine by LC/MS) in [7] turned out to be 0.443 nM. This molecule also had a Max Inhib. (projected maximal inhibition at saturating antibody) in experiment [7] of 97%. Also, in experiment [7], the inhibition of CD73 enzymatic activity on COR-L23 cells at 1 µg/mL is greater than 95%. Also, the abundance of dissociation component (biphasic fit) in the experiment with soluble CD73 dimer [9] turned out to be 91%; with soluble CD73 dimer [11] it was 9%. Further, in the experiment with soluble CD73 dimer [10], the fold more stable (kd of the principal component) than with either monovalent parental was determined as 5.4 fold. Further, in the experiment with soluble CD73 dimer [12], the dissociation constant (Kd) (as a rule, the constant that tells how readily two partners part at equilibrium) turned out to be 0.352 nM.

B2: TB19/H19 (bispecific antibody, part only; not given: H19 arm; constant regions, V domains shown, part only)
VH: B1 VH
VL: B1 VL
Take B2: the kon with soluble CD73 dimer [14] amounted to 1.38e+06 M⁻¹ s⁻¹; with soluble CD73 dimer [5], 449000 M⁻¹ s⁻¹; in the experiment with soluble CD73 dimer [18], 281000 M⁻¹ s⁻¹. The figures for the abundance of association component (biphasic fit) with soluble CD73 dimer [15] and with soluble CD73 dimer [17] were 35% and 65%, respectively. Besides, the % inhibition of CD73 activity at 1 µg/ml antibody (COR-L23 cells, 4 h, LC/MS); cell TB19 x H19 in experiment [4] amounted to 97%. Also, the results for the off-rate constant (koff) in the experiment with soluble CD73 dimer [5], with soluble CD73 dimer [19] and with soluble CD73 dimer [23] were 0.000112 s⁻¹, 2.7e-05 s⁻¹ and 0.0027 s⁻¹, respectively. Besides, the abundance of dissociation component (biphasic fit) with soluble CD73 dimer [16] turned out to be 15%; with soluble CD73 dimer [21], 85%. In addition, the EC50 (nM) of inhibition of CD73 activity (adenosine by LC/MS) in experiment [7] turned out to be 0.382 nM. Moreover, the Max Inhib. (projected maximal inhibition at saturating antibody) in experiment [7] turned out to be 98%. The inhibition of CD73 enzymatic activity on COR-L23 cells at 1 µg/mL in [7] was greater than 95%. For the same molecule, the fold lower KD than either parental antibody with soluble CD73 dimer [20] turned out to be 15 fold. Moreover, the fold more stable (kd of the principal component) than with either monovalent parental with soluble CD73 dimer [10] is 26 fold. The Kd in the experiment with soluble CD73 dimer [12] was determined as 0.0602 nM. The fold increase of apparent affinity (KD) over either monovalent parental antibody with soluble CD73 dimer [22] turned out to be 69 fold.

B3: TB19/TA9 (bispecific antibody, part only; not given: TA9 arm, part only)
TB19 arm heavy chain: B1 VH
TB19 arm light chain: EIVMTQSPTTLSLSPGERATLSCRASQSVNTNYFSWYQQKPGLTPRLLIYGTSTRATGIPARFSGSGSGTDFTLTISSLQPEDFGIYYCQQDYNLPYTFGQGTYLEIKRTVAAPSVFIFPPSDEQLKSGTASVVCLLNNFYPREAKVQWKVDNALQSGNSQESVTEQDSKDSTYSLSSTLTLSKADYEKHKVYACEVTHQGLSSPVTKSFNRGEC
B3: the % inhibition of CD73 activity at 1 µg/ml antibody (COR-L23 cells, 4 h, LC/MS); cell TB19 x TA9 in experiment [4] was found to be 70%.

B4: TB19/TA10 (bispecific antibody, part only; not given: TA10 arm, part only)
TB19 arm heavy chain: B1 VH
TB19 arm light chain: B3 TB19 arm light chain
Consider B4, for which the % inhibition of CD73 activity at 1 µg/ml antibody (COR-L23 cells, 4 h, LC/MS); cell TB19 x TA10 in experiment [4] was found to be 80%.

B5: TB19/F1.2 (bispecific antibody, part only; not given: F1.2 arm, part only)
TB19 arm heavy chain: B1 VH
TB19 arm light chain: B3 TB19 arm light chain
Take B5: in experiment [4], the % inhibition of CD73 activity at 1 µg/ml antibody (COR-L23 cells, 4 h, LC/MS); cell TB19 x F1.2 amounted to 47%.

B6: TB19/TC29 (bispecific antibody, part only; not given: TC29 arm; constant regions, V domains shown, part only)
VH: B1 VH
VL: B1 VL
Turning to B6, the % inhibition of CD73 activity at 1 µg/ml antibody (COR-L23 cells, 4 h, LC/MS); cell TB19 x TC29 in experiment [4] amounted to 95%. In addition, the koff in the experiment with soluble CD73 dimer [5] turned out to be 8.96e-05 s⁻¹; with soluble CD73 dimer [8], 7.8e-05 s⁻¹; with soluble CD73 dimer [13], 0.006 s⁻¹. Also, the kon with soluble CD73 dimer [5] was determined as 685000 M⁻¹ s⁻¹; in the experiment with soluble CD73 dimer [25], 116000 M⁻¹ s⁻¹; in the experiment with soluble CD73 dimer [28], 1.19e+06 M⁻¹ s⁻¹. Moreover, the abundance of association component (biphasic fit) was 45% with soluble CD73 dimer [24] and 55% with soluble CD73 dimer [27]. The EC50 (nM) of inhibition of CD73 activity (adenosine by LC/MS) in experiment [7] came to 0.264 nM. For the same molecule, in experiment [7], the EC50, fold lower than that of the antibody mixture came to 50 fold. This molecule gave a Max Inhib. (projected maximal inhibition at saturating antibody) in experiment [7] of 95%. The same molecule came in with an inhibition of CD73 enzymatic activity on COR-L23 cells at 1 µg/mL in experiment [7] greater than 95%. In addition, the abundance of dissociation component (biphasic fit) with soluble CD73 dimer [26] turned out to be 91%; with soluble CD73 dimer [29], 9%. For the same molecule, the Kd with soluble CD73 dimer [12] is 0.114 nM.

B7: TB19/C16 (bispecific antibody, part only; not given: C16 arm, part only)
TB19 arm heavy chain: B1 VH
TB19 arm light chain: B3 TB19 arm light chain
As to B7, in [4], the % inhibition of CD73 activity at 1 µg/ml antibody (COR-L23 cells, 4 h, LC/MS); cell TB19 x C16 came out at 85%.

B8: TB19/E23 (bispecific antibody, part only; not given: E23 arm, part only)
TB19 arm heavy chain: B1 VH
TB19 arm light chain: B3 TB19 arm light chain
Take B8: in experiment [4], the % inhibition of CD73 activity at 1 µg/ml antibody (COR-L23 cells, 4 h, LC/MS); cell TB19 x E23 came out at 50%.

B9: TB19/AS30 (bispecific antibody, part only; not given: AS30 arm, constant regions, V domains shown, not shown: another chain or arm of the molecule; a dimerising Fc or GST; small tags and cut ends)
VH: B1 VH
VL: B1 VL
For the molecule B9, in experiment [4], the % inhibition of CD73 activity at 1 µg/ml antibody (COR-L23 cells, 4 h, LC/MS); cell TB19 x AS30 (monovalent) was -1%. Moreover, in the experiment with soluble CD73 dimer [5], the koff worked out at 0.00069 s⁻¹ and the kon is 165000 M⁻¹ s⁻¹. This molecule registered a Kd in the experiment with soluble CD73 dimer [12] of 4.18 nM.

Source of the values: US20220403041A1 (Sanofi, published 2022).
